# Test results as given in US12643954B2, “Anti-CD36 antibodies and their use to treat cancer” (ONA Therapeutics, S.L., priority 2020, dated 2026).
# Read-outs that look alike come from different tables or passages of the source.
# B1: ONA-0-v1: murine IgA anti-CD36 antibody; heavy chain SEQ ID NO: 5, light chain SEQ ID NO: 7 (antibody)
# heavy: QVQLKQSGADLVRPGASVKLSCKASGYTFTDYYINWVKQRPGQGLEWIARIYPGSGNTYYNEKFKGKATLTAEKSSSTAYMQLSSLTSEDSAVYFCARGIGGGFGMDYWGQGTSVTVSSESARNPTIYPLTLPPVLCSDPVIIGCLIHDYFPFGTMNVTWGKSGKDITTVNFPPALASGGRYTMSSQLTLPAVECPEGESVKCSVQHDSNPVQELDVNCSPTPPPPITIPSCQPSLSLQRPALEDLLLGSDASITCTLNGLRNPEGAAFTWEPSTGKDAVQKKAAQNSCGCYSVSSVLPGCAERWNSGASFKCTVTHPESGTLTGTIAKVTVNTFPPQVHLLPPPSEELALNELLSLTCLVRAFNPKEVLVRWLHGNEELSPESYLVFEPLKEPGEGATTYLVTSVLRVSAETWKQGDQYSCMVGHEALPMNFTQKTIDRLSGKPTNVSVSVIMSEGDGICY
# light: SIVMTQTPKFLLVSAGDRITITCKASQSVSDDVAWYQQKPGQSPKLLIYYASNRYTGVPDRFTGSGYGTDFTFTISTVQAEDLAVYFCQQDYSSPLTFGAGTKLEIKRADAAPTVSIFPPSSEQLTSGGASVVCFLNNFYPKDINVKWKIDGSERQNGVLNSWTDQDSKDSTYSMSSTLTLTKDEYERHNSYTCEATHKTSTSPIVKSFNRNEC
# modifications: ONA-0-v1 heavy chain; ONA-0-v1 light chain
# Assays:
# HCT-116 cells = assay: HCT-116 orthotopic mouse model of colon cancer (Example 8); type: in vivo
# Procedure: Studies of the effects of the ONA-0-v1 anti-CD36 antibody on colon cancer were performed in BALB/c nude mice (immuno-deficient). The studies included only female mice. All mice were inoculated with commercially available HCT-116 (ATCC) cancer cells, transduced with a retroviral vector expressing luciferase. HCT-116 cells were derived from a human colorectal carcinoma (i.e., from a colon cancer). Prior to inoculation, the HCT-116 cells were cultured in a humidified incubator at 37° C. with 5% CO2, and were grown in McCoy's 5A medium supplemented with 5 μg ml^−1 penicillin/streptomycin and 10% FBS (GIBCO).
# For each mouse, 2×10^6 HCT-116 cells were inoculated via orthotopic injection. Each mouse was imaged after inoculation and one week later and liver metastasis were confirmed by ex vivo luminescence prior to start of treatment. Treatment began 14 days after inoculation with the HCT-116 cells. Inoculated mice were divided into one of two treatment groups: vehicle injection control (n=10) or ONA-0-v1 treatment (n=10). Antibody treatments were administered via intraperitoneal (i.p.) injection daily at a dose of 3 mg/kg, while control mice received an equal volume of vehicle on the same schedule. At 7, 14, and 21 days after start of treatment, all mice were imaged via IVIS. Mice were sacrificed at the end of the treatment period (day 25). Upon sacrifice, organs and tissues were collected for performance of necropsy, ex-vivo IVIS, and histopathology.
# CD36 [1] = target: T1, CD36 (Homo sapiens, UniProt P16671); assay: ELISA binding to plate-coated human CD36; parameters: purchased Sino Biological 10752-H08H; conditions: recombinant human CD36 coated plates
# Procedure: (§1) To perform ELISA assays, 96-well ELISA plates were coated over night with human CD36 (Sino Biological, reference 10752-H08H) or mouse CD36 (Sino Biological, reference 50422-M08H) recombinant proteins at a concentration of 0.25 mg/ml. After two washes with PBS, plates were blocked with 4% skimmed milk in PBS for 1 hour at 37° C. Blocking solution was discarded and plates were washed five times with 200 μl/well PBS-Tween20 (0.5%). Primary antibodies were either omitted (control blocking solution treatment) or mixed in blocking solution at several dilutions ranging from 0.01 nM to 0.5 μM. The primary antibody solutions were added to the wells and incubated over night at 4° C. After 5 washes with 200 ul/well of PBS-Tween20 (0.5%), plates were incubated for 1 hour at room temperature with a goat anti-mouse HRP-conjugated antibody (Abeam, reference ab97235) diluted 1:2000 in blocking solution. Plates were then washed 5 times with 200 μl/well of PBS-Tween20 (0.5%), incubated with 100 μl/well TMB and detected after 10 minutes, 30 minutes, or 60 minutes with a spectrophotometer at a wave length of 630 nm.
# Target sequence in this assay (P16671 30-439 limits assumed): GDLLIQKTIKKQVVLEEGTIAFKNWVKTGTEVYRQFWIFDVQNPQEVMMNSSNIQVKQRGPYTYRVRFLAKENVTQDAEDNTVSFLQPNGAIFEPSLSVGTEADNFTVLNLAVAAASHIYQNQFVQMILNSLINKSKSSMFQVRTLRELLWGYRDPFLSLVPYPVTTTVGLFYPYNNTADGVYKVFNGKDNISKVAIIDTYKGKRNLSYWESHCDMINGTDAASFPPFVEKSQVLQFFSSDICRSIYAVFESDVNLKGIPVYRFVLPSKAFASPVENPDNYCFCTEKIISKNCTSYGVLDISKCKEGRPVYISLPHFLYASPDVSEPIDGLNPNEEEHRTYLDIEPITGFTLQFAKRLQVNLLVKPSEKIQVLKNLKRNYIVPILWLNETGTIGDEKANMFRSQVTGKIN
# OVCAR-3 cells = assay: OVCAR-3 orthotopic mouse model of ovarian cancer (Example 7); type: in vivo
# Procedure: Studies of the effects of the ONA-0-v1 anti-CD36 antibody on ovarian cancer were performed in NSG mice (immuno-deficient). The studies included only female mice. All mice were inoculated with commercially available OVCAR-3 (ATCC) cancer cells. OVCAR-3 cells were derived from a human progressive adenocarcinoma of the ovary (i.e., from an ovarian cancer). Prior to inoculation, the OVCAR-3 cells were cultured in a humidified incubator at 37° C. with 5% CO2, and were grown in RPMI-1640 supplemented with 5 μg ml^−1 penicillin/streptomycin, 0.01 mg/ml bovine inulin and 20% FBS (GIBCO).
# For each mouse, a piece of an OVCAR-3 xenograft was implanted orthotopically. […] Mice implanted with OVCAR-3 also develop metastases in both the peritoneal wall and liver.
# Treatment of the implanted mice began 23 days after implantation with the OVCAR-3 tumor pieces. Inoculated mice were divided into one of two treatment groups: vehicle injection control (n=9) or ONA-0-v1 treatment (n=9). Antibody treatments were administered via intraperitoneal (i.p.) injection daily at a dose of 3 mg/kg, while control mice received an equal volume of vehicle on the same schedule. Mice were sacrificed at the end of the treatment period. Upon sacrifice, organs and tissues were collected for performance of immunohistochemistry analysis.
# mouse CD36 = target: T2, mouse CD36 (Mus musculus, UniProt Q08857); assay: ELISA binding to plate-coated mouse CD36; conditions: recombinant mouse CD36 coated plates
# T2 construct: purchased Sino Biological 50422-M08H
# Procedure: as §1
# CD36 [2] = target: T1, CD36; assay: Surface plasmon resonance (Biacore T200) affinity for human CD36; type: binding; conditions: SPR
# Procedure: The affinity of ONA-0-v1, 1G04, and a commercial anti-CD36 antibody (JC63.1) for human CD36 was also measured by surface plasmon resonance (SPR) using a Biacore T200. 1G04 was analysed using a protein A capture surface, with a capture range of 100-150 RU and an antigen titration range of 3.3-333 nM. The mouse antibodies ONA-0-V1 and the commercial anti-CD36 antibody were analysed using an anti-mouse IgA capture surface, with a capture range of 160-180 RU and an antigen titration range of 3.3-333 nM. For each single analysis cycle a titration of five antigen concentrations were injected over the captured antibody and then the dissociation of the complex was measured. A double referencing method was employed in which data from the reference surfaces where no antibody was captured (fc 1 and 3 respectively) were subtracted from the antibody bound capture surface (fc 2 and 4). Blank injections of buffer were run for every antigen titration cycle and then subtracted from analyte injection cycles, to correct for small changes in the antibody capture surface density. All analysis was performed at 25° C., and the sample rack was kept at 6° C. during experimental runs. Each experiment was run at least three times with the mean binding constants generated from at least two independent assays reported. All analysis was performed in PBS-T running buffer at 40 μL/min.
# Target sequence in this assay (P16671 whole entry): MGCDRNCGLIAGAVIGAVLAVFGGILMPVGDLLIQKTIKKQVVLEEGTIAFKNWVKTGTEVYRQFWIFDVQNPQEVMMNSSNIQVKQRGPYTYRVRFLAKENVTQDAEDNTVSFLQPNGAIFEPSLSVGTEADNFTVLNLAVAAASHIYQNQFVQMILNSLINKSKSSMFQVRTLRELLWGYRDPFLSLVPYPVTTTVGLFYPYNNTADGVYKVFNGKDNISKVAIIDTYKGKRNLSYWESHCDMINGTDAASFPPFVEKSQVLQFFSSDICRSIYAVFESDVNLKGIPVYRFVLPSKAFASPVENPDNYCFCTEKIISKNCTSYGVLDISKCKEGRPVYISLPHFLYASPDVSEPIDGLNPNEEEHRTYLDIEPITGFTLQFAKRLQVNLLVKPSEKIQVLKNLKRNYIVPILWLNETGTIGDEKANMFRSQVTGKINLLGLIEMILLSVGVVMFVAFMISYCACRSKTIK
# T2 sequence (Q08857 30-439 limits assumed): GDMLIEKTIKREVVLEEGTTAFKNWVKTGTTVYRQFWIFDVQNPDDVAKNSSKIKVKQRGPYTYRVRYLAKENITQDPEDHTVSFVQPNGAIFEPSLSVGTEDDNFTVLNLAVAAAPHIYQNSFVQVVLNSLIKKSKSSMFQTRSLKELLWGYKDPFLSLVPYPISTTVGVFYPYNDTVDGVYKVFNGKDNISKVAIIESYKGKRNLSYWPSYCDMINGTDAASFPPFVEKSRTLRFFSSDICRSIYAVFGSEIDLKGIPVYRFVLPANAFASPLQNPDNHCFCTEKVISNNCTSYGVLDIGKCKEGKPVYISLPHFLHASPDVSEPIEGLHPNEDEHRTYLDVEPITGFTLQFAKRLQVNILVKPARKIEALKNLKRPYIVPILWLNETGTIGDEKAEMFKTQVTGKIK
molecule,measurement,setting,value
B1,in vivo total tumor bioluminescence over time,"HCT-116 cells; 3 mg/kg i.p. daily, day 21",reduced the growth of the tumor
same,"ex vivo luminescence, kidney",HCT-116 cells; IVIS at sacrifice,1.08*10^6
same,"ex vivo luminescence, liver",HCT-116 cells; IVIS at sacrifice,9.02*10^7
same,"ex vivo luminescence, lung",HCT-116 cells; IVIS at sacrifice,1.24*10^6
same,"ex vivo luminescence, spleen",HCT-116 cells; IVIS at sacrifice,1.79*10^8
same,body weight as percent of starting body weight,HCT-116 cells; day 18,91.1%
same,"ex vivo primary tumor bioluminescence, average radiance",HCT-116 cells; day 25,1.51*10^10
same,percentage of mice with tumors in their liver,HCT-116 cells; ex vivo luminescence,60%
same,percentage of mice with tumors in their lungs,HCT-116 cells; ex vivo luminescence,60%
same,binding to human CD36 in ELISA,CD36 [1],able to specifically bind
same,average primary tumor weight,OVCAR-3 cells; 3 mg/kg i.p. daily,1.058 g
same,decrease of primary tumor weight vs vehicle,OVCAR-3 cells; 3 mg/kg i.p. daily,43%
same,SR (Sirius red) positive area of primary tumors,OVCAR-3 cells; collagenous and fibrotic areas,22.5%
same,percent necrosis of primary tumors,"OVCAR-3 cells; histology, pathologist quantification",approximately 40.71%
same,animals with large metastasis (>5 mm) in the peritoneal wall,OVCAR-3 cells; macroscopic analysis,no large metastasis were detected
same,animals with no metastasis in the peritoneal wall,OVCAR-3 cells; macroscopic analysis,63%
same,animals with small metastasis (1-2 mm) in the peritoneal wall,OVCAR-3 cells; macroscopic analysis,38%
same,large liver metastasis,OVCAR-3 cells; macroscopic analysis,6%
same,mice without metastasis in the liver,OVCAR-3 cells; macroscopic analysis,50%
same,small liver metastasis,OVCAR-3 cells; macroscopic analysis,44%
same,binding to mouse CD36 in ELISA,mouse CD36,able to specifically bind
same,ka,"CD36 [2]; 1-to-1 model, 25° C.",632000 M⁻¹ s⁻¹
same,kd,"CD36 [2]; 1-to-1 model, 25° C.",0.00354 s⁻¹
same,ka1,CD36 [2]; 2-state model,108000 M⁻¹ s⁻¹
same,ka2,CD36 [2]; 2-state model,0.000558 s⁻¹
same,kd1,CD36 [2]; 2-state model,0.0023 s⁻¹
same,kd2,CD36 [2]; 2-state model,0.000393 s⁻¹
same,ka2,CD36 [2]; bivalent model,6.74E−05 1/RUs
same,kd1,CD36 [2]; bivalent model,0.00259 s⁻¹
same,kd2,CD36 [2]; bivalent model,0.000527 s⁻¹
same,ka1,"CD36 [2]; bivalent model, first ka1 column",33400 M⁻¹ s⁻¹
same,Kd,"CD36 [2]; bivalent model, read-out: KD1",77.3 nM
same,Kd,"CD36 [2]; bivalent model, read-out: KD2",986 nM
